Measured values as given in patent US20110263824A1 (JAPAN TOBACCO, published 2011).
Positions count from the first letter of the chain named.

B1: TM2 R104EK141E (other)
chain: MSDVQSSLTGTWYNELNSKMELTANKDGTLTGKYLSKVGDVYVPYPLSGRYNLQPPAGQGVALGWAVSWENSKIHSATTWSGQFFSESSPVILTQWLLSSSTAEGDVWESTLVGNDSFTKTAPTEQQIAHAQLHCRAPRLE
notes: TM2 double mutant; also called R104-K141
B2: TM2 K141E (other)
chain: B1 chain with E104R
notes: TM2 mutant
B3: TM2 K73Q (other)
chain: B1 chain with K73Q, E104R, E141K
notes: TM2 mutant
B4: TM2 K26A (other)
chain: B1 chain with K26A, E104R, E141K
notes: TM2 mutant
B5: TM2 R104E (other)
chain: B1 chain with E141K
notes: TM2 mutant
B6: tamavidin 2 (wild type) (other)
chain: B1 chain with E104R, E141K
notes: also called TM2; TM2WT

These binders were tested against fibronectin (assay: summary of Example 1-10: ELISA on fibronectin-immobilized plate).
Procedure: (§1) The fibronectin-binding of each low-pI TM2 was compared using a microplate to which fibronectin was immobilized. The concentration of fibronectin was adjusted to 50 μg/mL with a fixation solution exclusive for a New ELISA plate, and the fibronectin solution (50 μL) was added to each New ELISA plate (Sumitomo Bakelite), followed by shaking at 37° C. for 4 hours for immobilization. Then, the plate was washed with 0.1% Triton X-100-containing PBS (300 μL) three times and was then dried naturally.
(§2) TM2, K26A, K73Q, R104E, K141E, and R104EK141E mutants (50 μL each) were each added to the corresponding well of the plate and left at room temperature for 1 hour. The plate was washed with 300 μL/well of PBST (PBS buffer containing 0.1% Tween 20) three times. Then, biotinylated HRP diluted 5000 times with PBST containing 0.5% BSA was added at 50 μL/well and allowed to react with the mutant at room temperature for 1 hour. After washing with 300 μL/well of PBST three times, 50 μL/well of 1-Step Ultra TMB-ELISA solution was added to each well for color development.

**Q.** B1 was tested. Which “amount of fibronectin binding relative to wild type TM2” value did it give?
**A.** Its value is 10 to 20 % of wild type TM2.

**Q.** For B2, which “amount of fibronectin binding relative to wild type TM2” value is on record?
**A.** Its value is 10 to 20 % of wild type TM2.

Each binder was assayed against fibronectin (assay: ELISA on fibronectin-immobilized plate, biotinylated HRP detection).
Procedure: as §1, §2

**Q.** With B1 as the binder, how does the “Binding of fibronectin (A450)” value read?
**A.** Its value is 0.11 A450.

**Q.** With B2 as the binder, how does the “Binding of fibronectin (A450)” value read?
**A.** The value was 0.21 A450.

**Q.** B3 was tested. Which “Binding of fibronectin (A450)” value did it give?
**A.** The value was 0.98 A450.

**Q.** Which “Binding of fibronectin (A450)” value does the source give for B4 here?
**A.** Its value is 0.85 A450.

**Q.** With B5 as the binder, how does the “Binding of fibronectin (A450)” value read?
**A.** The value was 0.7 A450.

**Q.** B6 was tested. Which “Binding of fibronectin (A450)” value did it give?
**A.** The value was 1.34 A450.
